Key:
[1] = biological target: the molecule itself; assay: SEC; analytical, Superdex increase 200 10/300 GL, 40 mM Tris-HCl pH 8.0, 0 mM NaCl; 0.5 mL at 1 mg/mL; (in 50 and 100 mM NaCl generally separated into monomers)
purified protein [2] = substrate: NC(=O)C1=CN([C@@H]2O[C@H](COP(=O)(O)OP(=O)(O)OC[C@H]3O[C@@H](n4cnc5c(N)ncnc54)[C@H](OP(=O)(O)O)[C@@H]3O)[C@@H](O)[C@H]2O)C=CC1; assay: purified protein; type: biochemical, Scheffersomyces stipitis; details: 150 mM NaCl, 100 mM D-xylose, 100 mM Tris-HCl pH 8.0, 303 K, crystal structure of the complex at 2.0 Å, 30.0 °C, varied: cofactor
purified protein [3] = substrate: NC(=O)C1=CN([C@@H]2O[C@H](COP(=O)(O)OP(=O)(O)OC[C@H]3O[C@@H](n4cnc5c(N)ncnc54)[C@H](O)[C@@H]3O)[C@@H](O)[C@H]2O)C=CC1; assay: purified protein; type: biochemical, Scheffersomyces stipitis; details: 150 mM NaCl, 100 mM D-xylose, 100 mM Tris-HCl pH 8.0, 303 K, 30.0 °C, varied: cofactor

B1: D-xylose reductase from Scheffersomyces stipitis (enzyme, UniProt P31867 1-318, looked up)
chain: MPSIKLNSGYDMPAVGFGCWKVDVDTCSEQIYRAIKTGYRLFDGAEDYANEKLVGAGVKKAIDEGIVKREDLFLTSKLWNNYHHPDNVEKALNRTLSDLQVDYVDLFLIHFPVTFKFVPLEEKYPPGFYCGKGDNFDYEDVPILETWKALEKLVKAGKIRSIGVSNFPGALLLDLLRGATIKPSVLQVEHHPYLQQPRLIEFAQSRGIAVTAYSSFGPQSFVELNQGRALNTSPLFENETIKAIAAKHGKSPAQVLLRWSSQRGIAIIPKSNTVPRLLENKDVNSFDLDEQDFADIAKLDINLRFNDPWDWDKIPIFV
notes: D-xylose reductase (SsXR) of Scheffersomyces stipitis; cloned NdeI/XhoI into pProEX-HTa; The vector adds a 6x-His tag with an rTEV protease cleavage site at the N-terminus; also called SsXR; XR; source: E. coli BL21(DE3)-T1R, purified (Ni-NTA, gel filtration)
With B1 the “stoichiometry N” value [1] was 2, the Km (purified protein [2]) was 27.7 ± 2 µM and the kcat (purified protein [2]) was 7.63 ± 0.19 s⁻¹. For the same protein, the Km (purified protein [3]) was 136 ± 17 µM and the kcat (purified protein [3]) was 2.39 ± 0.15 s⁻¹.

From paper PMC6261992, “Structural insight into D-xylose utilization by xylose reductase from Scheffersomyces stipitis” (Scientific Reports, 2018)
